Results reported in article PMC3021526, “Rise and Fall of an Anti-MUC1 Specific Antibody” (PLoS ONE, 2011).

T1: MUC1 15 aa peptide with cysteine (…-C) (human)
T1 sequence (peptide): APDTRPAPGSTAPPAC

T2: MUC1 15 aa peptide with cysteine (APDTRPAPGSTAPPA-C) (Homo sapiens (synthetic peptide))
T2 construct: 15 residues of the tandem repeat (VNTR) of human MUC1; added C-terminal cysteine, used for coupling to the chip; also called MUC1 peptide; MUC1 peptide antigen
T2 chain: APDTRPAPGSTAPPAC

T3: MUC1 32 aa peptide with a C-terminal cysteine (APDTRPAPGSTAPPAHGVTSAPDTRPAPGSTA-C) (Homo sapiens (synthetic peptide))
T3 construct: 32 residues of the tandem repeats (VNTR) of human MUC1; added C-terminal cysteine; also called MUC1 peptide antigen (32mer cys); MUC1 32mer Cys peptide
T3 chain: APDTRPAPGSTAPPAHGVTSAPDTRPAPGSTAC


Tests used:
[1] = biological target: human anti-MUC1 scFv IIB6 (human); test: SEC; 80 µg IMAC purified scFv on Superdex200 10/300, PBS, 0.5 mL/min; monomer to dimer
[2] = biological target: synthetic MUC1 glycopeptide APDT(GalNAc)… (human); test: SPR; IIB6 on the MUC1 glycopeptide; data not shown
[3] = biological target: T1, MUC1 15 aa peptide with cysteine (…-C) (human); test: SPR; Biacore 2000; about 50 RU MUC1 15 aa peptide with cysteine coupled on a CM5 chip (NHS/EDC, PDEA); serial dilutions of scFv (0-400 nM) at 50 µL/min; 1:1 Langmuir separate fitting; IIB6 by steady-state model
[4] = biological target: affinity matured anti-MUC1 scFv HT220-M-G8 (human); test: SEC; 80 µg IMAC purified scFv on Superdex200 10/300, PBS, 0.5 mL/min; monomer to dimer
[5] = biological target: T2, MUC1 15 aa peptide with cysteine …; test: SPR; Biacore 2000; about 50 RU MUC1 15 aa peptide with cysteine coupled on a CM5 chip (NHS/EDC, PDEA); serial dilutions of scFv (0-400 nM) at 50 µL/min; 1:1 Langmuir separate fitting; IIB6 by steady-state model; conditions: both partners purified
[6] = biological target: T3, MUC1 32 aa peptide with a C-terminal …; test: ELISA; MUC1 32 aa peptide with C-terminal cysteine coated in PBS over night at 4°C; dilution series of purified scFv, scFv-Fc or IgG in 2% M-PBST, 1.5 h at RT; scFv detected by 9E10 (c-myc), scFv-Fc and IgG by anti-human Fc HRP; conditions: both partners purified
[7] = biological target: MUC1 on MCF-7 cells (human (endogenous in MCF-7)) (UniProt P15941); test: flow cytometry on cells; internalisation assay: MCF-7 cells with 10 µg/ml antibody on ice 1 h, washed, 1 h at 4°C; surface antibody detected by PE-conjugated mouse anti-human IgG
Sequence of MUC1 on MCF-7 cells (human (endogenous in MCF-7)) (P15941 24-1255): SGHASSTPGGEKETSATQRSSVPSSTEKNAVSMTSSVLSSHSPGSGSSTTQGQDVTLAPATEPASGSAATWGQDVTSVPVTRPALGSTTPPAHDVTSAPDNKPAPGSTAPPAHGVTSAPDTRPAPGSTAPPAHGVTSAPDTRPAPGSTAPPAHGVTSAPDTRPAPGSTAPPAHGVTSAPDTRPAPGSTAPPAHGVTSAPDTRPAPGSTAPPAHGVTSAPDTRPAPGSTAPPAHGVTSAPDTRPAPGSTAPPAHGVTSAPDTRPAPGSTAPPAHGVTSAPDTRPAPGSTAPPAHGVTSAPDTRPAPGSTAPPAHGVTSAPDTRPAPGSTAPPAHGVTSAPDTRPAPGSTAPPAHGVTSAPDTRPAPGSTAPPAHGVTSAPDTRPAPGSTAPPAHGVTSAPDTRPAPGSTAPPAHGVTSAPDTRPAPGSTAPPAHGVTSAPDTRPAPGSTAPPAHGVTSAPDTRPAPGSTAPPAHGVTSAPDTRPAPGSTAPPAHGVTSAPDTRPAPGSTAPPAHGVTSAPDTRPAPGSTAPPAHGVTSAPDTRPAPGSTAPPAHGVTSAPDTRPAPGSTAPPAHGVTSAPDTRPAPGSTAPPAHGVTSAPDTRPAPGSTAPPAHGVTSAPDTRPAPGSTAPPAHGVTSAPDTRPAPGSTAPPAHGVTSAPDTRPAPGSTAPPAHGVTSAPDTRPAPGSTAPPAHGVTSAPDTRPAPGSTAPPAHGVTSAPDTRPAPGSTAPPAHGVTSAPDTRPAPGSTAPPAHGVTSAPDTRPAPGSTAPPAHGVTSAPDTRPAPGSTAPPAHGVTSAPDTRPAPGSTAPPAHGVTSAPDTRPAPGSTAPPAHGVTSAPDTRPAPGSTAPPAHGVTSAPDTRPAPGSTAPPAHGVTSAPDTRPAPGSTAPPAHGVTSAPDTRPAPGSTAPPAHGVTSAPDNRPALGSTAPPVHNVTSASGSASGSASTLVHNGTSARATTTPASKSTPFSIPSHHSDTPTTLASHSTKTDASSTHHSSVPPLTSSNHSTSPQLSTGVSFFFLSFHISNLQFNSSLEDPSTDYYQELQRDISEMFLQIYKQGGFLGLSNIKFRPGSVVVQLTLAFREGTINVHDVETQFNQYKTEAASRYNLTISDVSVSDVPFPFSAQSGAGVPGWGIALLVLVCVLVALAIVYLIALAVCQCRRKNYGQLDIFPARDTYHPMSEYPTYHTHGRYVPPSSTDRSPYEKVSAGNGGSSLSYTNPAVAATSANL

Row | Binder | Kd [5] | koff [5] | kon [5] | also measured
1 | human anti-MUC1 scFv IIB6 (scFv, V domains shown) VH: QMQLVQSGAEVKKPGASVKVSCKASGYTFTGHYMHWVRQAPGQGLEWMGWIDPVTGGTKYAQNFQGWVTMTRDTSIRTAYMELSRLRSDDTAMYYCAREVTGDRGQFDKWGQGTLVTVAS VL: QSVLTQPPSVSVAPGKTARITCGGNNIGSKSVHWYQQKPGQAPVLVIYYDSDRPSGIPERFSGSNSGNTATLTISRVEAGDEADYYCQVWDSSSDWVFGGGTKLTVL |  |  |  | percent of the scFv dimerised [1]: 50%; stoichiometry N [1]: 2; Kd [2]: 230 nM; Kd [3]: 310 nM
2 | affinity matured anti-MUC1 scFv HT220-M-G8 (scFv, V domains shown, source: E. coli, IMAC purified; also culture supernatant from microtitre plates; not shown: c-myc, C-terminal, kept) VH: QMQLVQSGAEVMKPGASVKVSCKASGYSFTGHYMHWVRHAPGQGLEWMGWIDPVTGSTKYAQNFQGWVTMTRDTSISTAYMELSRLRSDDTAMYYCAREVTGDRGQFDKWGQGTLVTVAS VL: QSVLTQPPSVSVAPGKTARITCGGNNIGSKSVHWYQQKPGQAPVLVIYYGSDRPSGIPERFSGSNTGNMATLTISRVEAGDEADYYCQVWDSSSDWVFGGGTKLTVL | 4.4 nM | 0.00022 s⁻¹ | 50000 M⁻¹ s⁻¹ | percent of the scFv dimerised [4]: 50%; stoichiometry N [4]: 2
3 | affinity matured anti-MUC1 scFv HT186-G2 (scFv, V domains shown, From IIB6 by error-prone PCR (library A), off-rate panning; source: E. coli, IMAC purified; also culture supernatant from microtitre plates; not shown: c-myc, C-terminal, kept) VH: RMQLVQSGAEVKKPGASVKLSCKASGYTFAGHYMHWVRQAPGRGLEWMGWIDPVTGGTKYAQNFQGWVTMTRDTSIRTAYMELSRLRSDDTAMYYCAREVTGDRGQFDKWGQGTLVTVAS VL: QSVLTQPPSVSVAPGKTARITCGGNNIGSKSVHWYQQKPGQAPVLVIYYGSDRSSGIPERFSGSNSGNTATLTISRVEAGDEADYYCQVWDSSSDWVFGGGTKLTVL | ≤ 1 nM | ≤ 1e-05 s⁻¹ | 72000 M⁻¹ s⁻¹ | 
4 | affinity matured anti-MUC1 scFv HT200-3A-C1 (scFv, V domains shown, one potential N-glycosylation site in CDR2; From IIB6 by nested error-prone PCR (library B), panning in solution; source: E. coli, IMAC purified; also culture supernatant from microtitre plates; not shown: c-myc, C-terminal, kept) VH: QMQLVQSGAEVKKPGASVKVSCKASGYTFTGHYMHWVRQAPGQGLEWMGWIDPVTGGTKYAQNFQGWVTMTRDTSIRTAYMELSRLRSDDTAMYYCAREVTGDRGQFDKWGQGTLVTVAS VL: QSVLTQPPSVSMAPGETARITCGGNNIGSKSVHWYQQKPGQAPVLVIYNDSDRPSGIPERFSGSNSGKTATLTISRVEAGDEADYYCQVWDSSIDWVFGGGTKLTVL | 2.1 nM | 0.0001 s⁻¹ | 49000 M⁻¹ s⁻¹ | 
5 | HT186-G2 human IgG (antibody, V domains shown, as the VH of m4; human IgG heavy-chain constant region from the expression vector CHK622-08; as the VL of m4; C lambda derived from the vector CHL558-0; VH and VL ordered as synthetic genes, codon optimised for rat; also called HT186-G2 IgG) VH: RMQLVQSGAEVKKPGASVKLSCKASGYTFAGHYMHWVRQAPGRGLEWMGWIDPVTGGTKYAQNFQGWVTMTRDTSIRTAYMELSRLRSDDTAMYYCAREVTGDRGQFDKWGQGTLVTVAS VL: QSVLTQPPSVSVAPGKTARITCGGNNIGSKSVHWYQQKPGQAPVLVIYYGSDRSSGIPERFSGSNSGNTATLTISRVEAGDEADYYCQVWDSSSDWVFGGGTKLTVL |  |  |  | fold decrease of affinity against the scFv-Fc format [6]: ~10 fold
6 | affinity matured anti-MUC1 scFv HT220-M-D1 (scFv, V domains shown, one potential N-glycosylation site in CDR2; source: E. coli, IMAC purified; also culture supernatant from microtitre plates; not shown: c-myc, C-terminal, kept) VH: QMLLVQSGAEAKKPGASVKVSCKASGYTFTGHYMHWVRQAPGQGLEWMGWIDPVTGGTKYAQNFQGWVTMTRDTSIRTAYMELSRLRPDDTAMYYCAREVTGDRGQFDKWGQGTLVTVAS VL: QSVLTQPPSVSVVPGKTARIICGGNNIGSKSVHWYQQKPGQAPVLVIYNNSDRPSGIPERFSGSNSGNMATLTISRVEAGDESDYYCQVWDSSSDWVFGGGTRLTIL | 3.7 nM | 0.00011 s⁻¹ | 29000 M⁻¹ s⁻¹ | 
7 | affinity matured anti-MUC1 scFv HT186-B7 (scFv, V domains shown, From IIB6 by error-prone PCR (library A), off-rate panning; source: E. coli, IMAC purified; also culture supernatant from microtitre plates; not shown: c-myc, C-terminal, kept) VH: QMQLVQSGAEVKKPGASVKVSCKASGYTFTGHYMHWVRQAPGQGLEWMGWIDPVTGGTKYAQNFQGWVTMTRDTSIRTAYMELSRLRSDDTAMYYCAREVTGDRGQFDKWGQGTLVTVAS VL: QSVLTQPPSVSVAPGKTARITCGGNNIGSKSVHWYQQKPGQAPALVIYYGSYRPSGIPERFSGSNYGNTATLTIRRVEAGDEADYYCQVWDSSSDWVFGGGTKLTVL | 1.3 nM | 2.1e-05 s⁻¹ | 35000 M⁻¹ s⁻¹ | 
8 | affinity matured anti-MUC1 scFv HT186-D11 (scFv, V domains shown, From IIB6 by error-prone PCR (library A), off-rate panning; source: E. coli, IMAC purified; also culture supernatant from microtitre plates; not shown: c-myc, C-terminal, kept) VH: QMQLVQSEAELKKPGASVKVSCKASGYSFTGHYMHWVRQAPGQGLEWMGWIDPVTGGTKYAQNFQGWVTMTRDTSIRTAYLELSRLRSDDTAMYYCAREVTGDRGQFDKWGQGTLVTVAS VL: QSVLTQPPSVSVAPGKTARITCGGNNIGSKSVHWYQQKPGQAPALVIYYGSNRPSGIPERFSGSNSGNTATLTISRVEAGDEADYYCQVWDSSSDWVFGGGTKLTVL | 0.57 nM | 7.2e-05 s⁻¹ | 38000 M⁻¹ s⁻¹ | 
9 | HT186-D11 human IgG (antibody, V domains shown) VH: QMQLVQSEAELKKPGASVKVSCKASGYSFTGHYMHWVRQAPGQGLEWMGWIDPVTGGTKYAQNFQGWVTMTRDTSIRTAYLELSRLRSDDTAMYYCAREVTGDRGQFDKWGQGTLVTVAS VL: QSVLTQPPSVSVAPGKTARITCGGNNIGSKSVHWYQQKPGQAPALVIYYGSNRPSGIPERFSGSNSGNTATLTISRVEAGDEADYYCQVWDSSSDWVFGGGTKLTVL |  |  |  | percentage of MUC1 positive cells (4°C) [7]: 68%
